# Positions count from the first letter of the chain named. Names may count otherwise. Where no end group is shown, it is not given here.
# B1: FLCN-10-Rhodamine B (peptide)
# peptide: AQRMNTAFTP
# modifications: also: Rhodamine B label, site not given here
# notes: Labelled form used for fluorescence anisotropy and for the ex vivo tissue treatment; also called FLCN-10-Rhod-B; Rhodamine-B-labeled FLCN-10
# B2: FLCN P228A mutant (FLAG-tagged) (other)
# chain: MNAIVALCHFCELHGPRTLFCTEVLHAPLPQGDGNEDSPGQGEQAEEEEGGIQMNSRMRAHSPAEGASVESSSPGPKKSDMCEGCRSLAAGHPGYISHDKETSIKYVSHQHPSHPQLFSIVRQACVRSLSCEVCPGREGPIFFGDEQHGFVFSHTFFIKDSLARGFQRWYSIITIMMDRIYLINSWPFLLGKVRGIIDELQGKALKVFEAEQFGCPQRAQRMNTAFTAFLHQRNGNAARSLTSLTSDDNLWACLHTSFAWLLKACGSRLTEKLLEGAPTEDTLVQMEKLADLEEESESWDNSEAEEEEKAPVLPESTEGRELTQGPAESSSLSGCGSWQPRKLPVFKSLRHMRQVLGAPSFRMLAWHVLMGNQVIWKSRDVDLVQSAFEVLRTMLPVGCVRIIPYSSQYEEAYRCNFLGLSPHVQIPPHVLSSEFAVIVEVHAAARSTLHPVGCEDDQSLSKYEFVVTSGSPVAADRVGPTILNKIEAALTNQNLSVDVVDQCLVCLKEEWMNKVKVLFKFTKVDSRPKEDTQKLLSILGASEEDNVKLLKFWMTGLSKTYKSHLMSTVRSPTASESRN
# notes: Full FLCN protein with a point mutation in the FLCN-10 region, expressed in HEK293 cells; not shown: FLAG tag (immunoprecipitated using anti-FLAG agarose)
# B3: FLCN-M222A-FLAG (other)
# chain: B2 chain with M222A, A228P
# notes: Expressed in HEK293, UOK257 and ccRCC cells; also called M222A mutant; not shown: FLAG tag
# B4: FLCN-F226A-FLAG (other)
# chain: B2 chain with F226A, A228P
# notes: Expressed in HEK293 and UOK257 cells; not shown: FLAG tag
# B5: FLCN R221A mutant (FLAG-tagged) (other)
# chain: B2 chain with R221A, A228P
# notes: as for B2
# Tests used:
# recombinant LDHA = recombinant LDHA (human, UniProt P00338 1-332); test: fluorescence anisotropy, labelled peptide with recombinant LDHA
# Method: Fluorescence anisotropy was measured in triplicate using a SpectraMax i3 equipped with rhodamine fluorescence polarization module (lex\lem.535 nm/595 nm). Curve fitting was done in KaleidaGraph 4.0.
# [1] = biological target: Lactate dehydrogenase A (LDHA), endogenous (human, UniProt P00338 2-332); test: anti-FLAG IP from HEK293, immunoblot for LDHA
Binder,binding result (recombinant LDHA),binding result [1]
B1,binds,–
B2,–,no binding
B3,–,binds
B4,–,no binding
B5,–,no binding

# Source: patent publication US20200407397A1 (RESEARCH FOUNDATION FOR THE STATE UNIVERSITY OF NEW YORK, published 2020)
